Source: the supplement of paper PMC12855868

B1: library; numbered along this chain (parent)
chain: MAAAGGARLLRAASAVLGGPAGRWLHHAGSRAGSSGLLRNRGPGGSAEASRSLSVSARARSSSEDKITVHFINRDGETLTTKGKVGDSLLDVVVENNLDIDGFGACEGTLACSTCHLIFEDHIYEKLDAITDEENDMLDLAYGLTDRSRLGCQICLTKSMDNMTVRVPETVADARQSIDVGKTS

Variants of: B1
Assay: scaled log2 fold change in cell abundance, elesclomol vs control (0 = silent mean, 1 = nonsense mean) (scaled log2 ratio); higher = higher viability under elesclomol (loss of FDX1 cuproptosis function)
Conditions: glucose 10 mM
[1] = with ABC1 FDX1 KO, elesclomol 5 nM, 14 days
[2] = with HEK293T FDX1 KO, elesclomol 40 nM, 11 days
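Also: variant abundance is its share of total variant reads in each endpoint sample, from next-generation sequencing of the integrated ORF PCR-amplified out of genomic DNA.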

Variant | scaled log2 fold change [1] | scaled log2 fold change [2]
E107Q | -0.324 | -0.527
E107R | -1.12 | 1.26
E107Y | 0.333 | -0.16
E107V | 0.145 | 0.849
E107T | -0.333 | 0.112
E107W | 0.121 | -0.686
T109H | -0.34 | -0.84
T109D | -0.669 | 0.407
T109A | -0.1 | 0.103
T109F | -0.985 | -0.223
T109S | -1.08 | -0.288
T109P | 0.947 | 0.81
T109I | -0.689 | -0.157
T109W | -0.657 | 0.253
T109Q | -0.041 | 
T109V | -0.651 | 
T109C | -0.244 | -0.121
T109K | -0.296 | -0.481
T109N | -0.076 | 0.456
T109R | -0.153 | 1.07
T109M | -0.267 | 1.01
T109L | -0.315 | 0.377
T109G | 0.318 | 0.43
T109Y | -0.087 | 

Variant | scaled log2 fold change [1] | scaled log2 fold change [2]
T109E | -0.14 | 
L110H | 0.0622 | 0.156
L110E | 0.704 | 0.547
L110I | -0.0941 | -0.421
L110S | -0.279 | 1.18
L110W | 0.568 | 0.351
L110D | 0.955 | 0.687
L110N | 0.111 | -0.0165
L110R | -0.0668 | 1.07
L110G | -1.14 | -0.656
L110K | 0.374 | -0.159
L110P | 0.33 | -0.14
L110A | 0.303 | -0.448
L110F | 0.167 | 0.528
L110Y | 0.609 | 0.0828
L110T | 0.401 | 0.383
L110C | 0.439 | -1.38
L110V | 0.108 | -0.578
L110Q | -0.0207 | -0.0815
L110M | 0.297 | 0.602
G108H | 0.742 | 0.224
G108T | 1.01 | 0.358
G108D | 0.898 | 0.446
G108P | 1.09 | 1.24

Variant | scaled log2 fold change [1] | scaled log2 fold change [2]
G108V | 1.07 | 1.34
G108K | 0.467 | 0.101
G108C | 1.05 | 0.472
G108Q | 0.767 | 0.807
G108N | 0.805 | 0.721
G108M | 0.834 | 0.77
G108F | 1.12 | 0.938
G108A | 0.21 | 1.08
G108E | 1.01 | 0.92
G108W | 0.949 | 0.989
G108Y | 1 | 1.1
G108I | 1.05 | 1.37
G108S | 0.376 | 0.952
G108R | 0.794 | -0.104
G108L | 1.02 | 1.11
A111D | -0.231 | 0.497
A111W | 0.0852 | 0.773
A111S | 0.397 | -0.445
A111C | -0.264 | 2.92
A111P | 1.2 | 1.01
A111V | -0.00247 | -0.469
A111Q | -0.0306 | -0.173
A111G | -0.0345 | 0.231
A111E | -0.193 | 1.05

Variant | scaled log2 fold change [1] | scaled log2 fold change [2]
A111M | -0.315 | 1.22
A111N | -0.0992 | 0.0245
A111Y | -1.01 | 0.214
A111R | -0.24 | 
A111I | -0.421 | -0.0909
A111K | -0.155 | 0.541
A111L | 0.263 | 0.862
A111T | 0.105 | -0.0821
A111F | -1.42 | 0.414
A111H | -0.198 | 
S113R | 0.116 | 0.165
S113C | -0.028 | 0.699
S113G | 0.021 | 0.00491
S113L | 0.0304 | 0.215
S113D | 0.394 | 0.644
S113M | 0.304 | 
S113K | 0.372 | 0.195
S113N | -0.0206 | 0.213
S113A | 0.165 | -0.251
S113E | 0.672 | -0.214
S113F | 0.0249 | 0.717
S113V | 0.242 | -0.434
S113Q | -0.139 | -0.137
S113T | 0.186 | 0.232

Variant | scaled log2 fold change [1] | scaled log2 fold change [2]
S113I | 0.189 | -0.397
S113H | 0.269 | -0.884
S113P | 1.03 | 1.16
C112L | 0.979 | 1.26
C112R | 1.08 | 1.29
C112A | 1.16 | 1.03
C112Y | 1.09 | 1.3
C112E | 1.07 | 0.951
C112F | 1.02 | 1.25
C112D | 0.906 | 2.02
C112G | 1.15 | 1.18
C112W | 1.17 | 0.573
C112T | 1.16 | 0.679
C112I | 0.989 | 1.33
C112P | 1.17 | 0.87
C112M | 1.09 | 1.24
C112Q | 1.01 | 1.1
C112N | 0.953 | 1.22
C112S | 0.988 | 0.991
C112K | 1.12 | 1.35
C112H | 0.978 | 1.42
C112V | 1.21 | 1.04
